This is an account of results in article PMC4382993.

The target of this data set is T1, Fur (Escherichia coli O157:H7 (EDL933?)) (UniProt P0A9B1).
T1 sequence: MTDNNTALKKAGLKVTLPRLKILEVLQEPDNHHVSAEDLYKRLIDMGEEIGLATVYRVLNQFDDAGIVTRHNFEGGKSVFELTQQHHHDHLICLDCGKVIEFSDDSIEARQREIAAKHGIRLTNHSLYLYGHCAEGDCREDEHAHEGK
Kind of data set: EMSA. Conditions: BirA EMSA: 1 mM Tris-HCl pH 7.5, 0.1 mM EDTA, 0.2 mM DTT, 5 mM MgCl2, 10 mM KCl, 20 uM biotin, 1 mM ATP (DIG Gel Shift Kit); Fur EMSA: Invitrogen E33075 kit ….

“AACAGAAGACTGGTTGCTGGAGAGTCCTTCTCGGGTATCGATTGTCGAAGATAAACATATTTATTATTTTCATTTATTGAAAGACTTTTTTACATCATTACCAGATGCTTGCTTTATTGATAGTGAGCAGAGAGAGAATGCATTATTAATGATTGGTAAAGTTATCGACTATAAGGAGGAAATTATTTGATATTAATTACTCAATAATTTTTTTGTTTTCCTGAGAAAAATTATCAAGAGGTATATAGATGGATACATCAAATGCAACATCCGTTGTTAATGTGAGTGCGAGTTCTTC (double strand) [LEE Box1 fragment]”: the binding result was “no binding”. To “GACATTAAACTTGATCCTGGCGAGGCCAACAATATACAGCTTATTAATGATGCAAACACACCGCATAATAAAATTATAATAGAAAATGAATATATTAGAATAACTTTAGACCCATTAGAGCAAATAAGTATTTTATTGAATTCATTTAAAGATAATTATCTTAGCATTATTCAGGAATGATGATATGTCTCAATTAATGACCATTGGCTCACAGCCAATATTTTTAATTATTGTATTTTTTCTGTTATCATTACTGCCAA (double strand) [LEE Box5 fragment]” belongs “no binding”.

Take “GTTGGCGGCATCATTGTATCCGATGAAGATAATTGCTCTAGTTTATCAAATTGCTTATCGAGCAAAGAGGCGAGAGTATGTTGCATTATTGCTTTTGACATGTTTGCGCGATGATTATTATCTTTATGAAAAATTTGGCAAAGATACCACTTCTTATTAGACAGGAAAATACCCATTTGTTTATATTCGTTACTAACGGCCAGGATATTGCAGAGTCTGATAAATGTATCTGTTGGAACCTGACGAAAATCACCACTAAGCTCAATATATAGAACCCAGTAGTTTCCAAAATCG (double strand) [LEE Box4 fragment]”: the binding result is recorded as “no binding”.
